From a protein production outcome set (Wang et al. 2014) come the findings set out here.

A short description of this series: label from the status in PepcDB records.
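Also: failed if final PepcDB status was selected cloned or expressed and not failed if soluble or beyond.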

With “TVACPGRGRARPVCWKRSEMATCAVEVFGLLEDEENSRIVRVRVIAGIGLAKKDILGASDPYVRVTLYDPMNGVLTSVQTKTIKKSLNPKWNEEILFRVHPQQHRLLFEVFDENRLTRDDFLGQVDVPLYPLPTENPRLERPYTFKDFVLHPRSHKSRVKGYLRLKMTYLPKTSGSEDDNAEQAEELEPGWVVLDQPDAACH”, the protein production entry is recorded as “failed”.
The value for “TVLYVHGGAWFQDPLENHFEYLDLLVDALDARVIMPVYPKIPHRDYRTTFELLTKIYKRLLTKIDEPENLVIIGDSAGGQIALAFAQMLKKEQLSQPGHIVLISPVLDATFKNPEARKYEKEDPMLGIDGSKYLVELWAGDAPLDDYKMSPMNGDLEGLGHITLTVGTKETLYPDAVKFSHMLNDKGIKHQFIPGYNLFHIYPLFPIPERQRFLEQLKKIIVTKEL” was “failed”; that for “TYNYYDHAASAGTGQYLNDVQVETIELPVDYDADFVIPVYGDSMEPKYHSGDYVFVKLSVELTDGDIGVFEYYGDAYIKQLLINDKGAFLHSLNQCGDYPDIPIDRDSDFRIIGEVMGSYRER” was “failed”.
On to “VASGYGGIRVGGPYFDDLSKGQVFDWAPGVTLSLGLAAAHQSIVGNRLRLALDSDLCAAVTGMPGPLAHPGLVCDVAIGQSTLATQRVKANLFYRGLRFHRFPAVGDTLYTRTEVVGLRANSPKPGRAPTGLAGLRMTTIDRTDRLVLDFYRCAMLPASPDWKPGAVPGDDLSRIGADAPAPAADPTAHWDGAVFRKRVPGPHFDAGIAGAVLHSTADLVSGAPELARLTLNIAATHHDWRVSGRRLVYGGHTIGLALAQATRLLPNLATVLDWESCDHTAPVHEGDTLYSELHIESAQAHADGGVLGLRSLVYAVSDSASEPDRQVLDWRFSALQF”, for which the protein production result is “not failed”.
As to “VAYLGPAGTFTEEALYKFADAGVFGDGEIEQLPAKSPQEAVDAVRHGTAQFAVVAIENFVDGPVTPTFDALDQGSNVQIIAEEELDIAFSIMVRPGTSLADVKTLATHPVGYQQVKNWMATTIPDAMYLSASSNGAGAQMVAEGTADAAAAPSRAAELFGLERLVDDVADVRGARTRFVAVQAQAA”, the protein production entry is on record as “failed”.
On to “VDCIGCRKCEEVCLSDALDIMGKDVSVSELMDIIMQDYDFYISSGGGVTIGGGEMSLQTDFAVALLRECKKMMINTAVETQATTNVANYEKLAQVVDQFLIDIKHIDTTQHKALFGIGNENVRRNLERLMDLGANVVIRMPLVRGYNDSYDAITGAINYAMALSKRGNLQRIDILPYHQFGRN”, for which the protein production result is on record as “failed”.
With “VDIVVIGAGFTGLSTAYHIRKTDSSASVVVLEGECVAFGASGRTSGWVVPIPVLDPATARTLYGKERLTELQNFAWDGLDYVRDLISRENMDSDFEVPGVTFTTLKGHEKRLETFIKYWKDQPRSSDSIIMDKATVSNALNSDAFSGGCRMLHSGQVNPVKHSRELKRIAQEAGAQIFEQTPVLDIEDHGTYFILKTPEGQVRTKHIVLGTNGFTHLLPATLGLRRAQLPMFVYQLMTEPLSEADWKALGWKHRAQFYDKTTYCPPTCRTTVDGRLQFNLCDVYLGTGRSMDEAQRMQFYDAAERMYKKMFPAFKNLRVAQRWSGACSISFDVRPQVGTLHDGRISYGYGYSGAGVMMSQNFGRILADLALQRKTELTE”, the protein production entry is “failed”.
Regarding “VEIRTGEFEDIAGITDIFNFYIEHTNARFEEFPFTLENREEWFSQFSRTTKYQIYVAVENGVLQGFACSQKYRAIPAFDDTVEVSVYLAQEAKGKGLGSKLYTQLFSSIRAYGVHRILSGVALPNDASVALHKRFGFREVGIFNEYAKKHGQYISSVWLEKALNVESAL”, the protein production result is “failed”.
The value for “VFHPVECSYCHSESMMGFRYRCQQCHNYQLCQDCFWRGHAGGSHSNQHQMKEYTSW” was “not failed”; that for “VGDGKNQIFVKSLDGYREVQITDEKEGVSTFKWGPTGKGLYYVTQSKECEEIKKRKDLYGDFQHIGKEHQNNCLYYIEIEKVIQSDTDEHKNRVVYQLTDGKDFHIHEFDISNDGKKVVFMATPSSNMADYINGDLYILHIKAGELQKLNVDKLLGGSVCFSPDGSEICYTASIREKGYYRNHIQDSTLEIYDINTGELIQPLTDFD” was “failed”; that for “VGVRRENATATGVLLIPDGPDCPRPYPILTWGPSTSAQRHVGQDKTIVNANGNTPLVTRLASQGYVLVSPDYLGLGDSDYPFHPYLHLFTEVSSTIDAVRAARDVLWHSNTPLSNKVMLSGFSQGGQAALAVQREIEAHQSLSQEFSLVASAPISGPYALSQTILDSWSGRNK” was “failed”.
The value for “VIAAHGWAGDATVWRAWQQRFEARGWHWDAIERGYGQREPHQPSWAELPGQRLVIAHSLGLHLLPEKVLQQADAVVSLAGFAAFVPAGAAGRALGVALKGMASCLGTSDEPAMLRKFLSRCASPLPLSALPNNPLLRGMHPSGRQRLQDDLVLLQQCQSLPDGWPEGASVLVVQGEQDAIVCPDSRTQLLQALPPSRTDHRLRPDEGHAVVTPAVLDLVVRWAGN” was “failed”; that for “VINLKELKILHTSDWHLGVTSWTSSRPVDRREELKKALDKVVEEAEKREVDLILLTGDLLHSRNNPSVVALHDLLDYLKRMMRTAPVVVLPGNHDWKGLKLFGNFVTSISSDITFVMSFEPVDVEAKRGQKVRILPFPYPDESEALRKNEGDFRFFLESRLNKLYEEALKKEDFAIFMGHFTVEGLAGYAGIEQGREIIINRALIPSVVDYAALGHIHSFREIQKQPLTIYPGSLIRIDFGEEADEKGAVFVELKRGEPPRYERIDASPLPLKTLYYKKIDTSALKSIRDFCRNFPGYVRVVYEEDSGILPDLMGEIDNLVKIE” was “not failed”.
The value for “VIVESLVYHLSGKTYESRLVYEPGALGRPGLVMAPNWMGIGEGAERIAKEVAEKGYVVLIADLYGQSVRPSNADEAGVAMMPLKNDRGELRKRMQEALAQLLGQSKALLEPGKVATFGFCFGGCCALELARSGADLRAAVSFHGTLDTPNPEDAKRIKGSVLVLHGASDPLVPKEQLPAFEDEMNAAKVDWQLLSYGGAVHSFTDPNANMPGKMQYDRRTSERAFRSMHNLLSEVF” was “failed”; that for “VKPKGAFKAFTGEGQKLGSTAPQVLSTSSPAQQAENEAKASSSILIDESEPTTNIQIRLADGGRLVQKFNHSHRISDIRLFIVDARPAMAATSFILMTTFPNKELADESQTLKEANLLNAVIVQRLT” was “failed”.
Turning to “VKSIFEIDIEKLADSGVKGIITDLDNTLVGWDVKEPTKGVKSWFAKAKDLGITVTIVSNNNKSRVSSFSSNLGVDYIFKARKPMGKAFKMAIKKMKIQPRETVVVGDQMLTDVFGGNCNGLYTIMVVPVKRTDGLITKFN”, the protein production entry is “not failed”.
The value for “VLRWITAGESHGRALVAVVEGMVAGVHVTSADIADQLARRRLGYGRGARMTFERDAVTVLSGIRHGSTLGGPIAIEIGNTEWPKWETVMAADPVDPAELADVARNAPLTRPRPGHADYAGMLKYGFDDARPVLERASARETAARVAAGTVARAFLRQALGVEVLSHVISIGASAPYEGPPPRAEDLPAIDASPVRAYDKAAEADMIAQIEAAKKDGDTLGGVVEAVALGLPVGLGSFTSGDHRLDSQLAAAVMGIQAIKGVEIGDGFQTARRRGSRAHDEMYPGPDGVVRSTNRAGGLEGGMTNGQPLRVRAAMKPISTVPRALATVDLATGDEAVAIHQRSDVCAVPAAGVVVETMVALVLARAALEKFGGDSLAETQRNIAAYQRSVADREAPAARVSG” was “not failed”; that for “VMQMDRQPLVDPFGDYFQEFLSNAQNGQFFTPFGVCELMNQLITAPKVSDQPKQGDRRVLDPACGSGRLLLSAAQKDRALTFVGIDISYTCCLMTIINLCLNSLNGEVLHMNALTDQYWHRWL” was “failed”.
The value for “VPKLVDHDERRRSITAAAWRLIAARGIEAANMRDIATEAGYTNGALSHYFAGKDEILRTSYEHISEATDRRIAEALGDATGLDALRILCREVMPINEEQLLEARIAASLWPRAMYDEQMAATNRRTMDNWREQMAIFLEQAREEGSVGDIDVTIVVEQLLNMMMGMQILGVLTPGETSSERQLEMLEQFVAAL” was “not failed”; that for “VPYAVEGRNYQGDLYLPCERIRAGLVLLPGAAEEGKDDPRLQAFAETLARARFAVLVPDLGGFRSLRAGSRDIGETADAILWLSSRPGLSPGGKCGVAALSYAGGPALLAALEPRAGQRVRFLVTVGGYYDLRNVLTFFTTGWYRDGDRWRRGTPNNYGKWVFVLANTDRIKNVRDRTALEKLARRKMDNPAARTDDLVRGLGPEGKSLYDFFANTDPRQVPALVERLPTPIRRDLAALDPSRRDLRGLTARLIIIHGRDDDIIPAAESEALARAVPRDRRGLFVLDGLMHVELKPKLTDAFRLWRAVSAILRER” was “failed”.
The value for “VQRCVIIQKDQHGFGFTVSGDRIVLVQSVRPGGAAMKAGVKEGDRIIKVNGTMVTNSSHLEVVKLIKSGAYVALTLLGSS” was “not failed”.
Turning to “VQRPWLAPLPGAPMNACRLLLCFPYGGGGASAFNDLSRLADVGVATWAVKLPGREDRSMEAPVTRVANVIEAIVDALQSVGIPYAFYGHSFGAGLALDVAHALAERDRPLPTHLVLSGRMPPHTGYSPLLGAMDDNQLWQHVCSESLLPLPTDASCSFARHALGKLKADLALNAQLTYRFIRPLPVPLYVLNGQDDPLLELHRLDEWQRYTSTSFHSEYVPGGHFFFNINFQLLYLPLLTALD”, the protein production result is reported as “not failed”.
In the case of “VQVGNCLQVMWLADRHSDPELYTAAKHCAKTHLAQLQNTEEFLHLPHRLLTDIISDGVPCSQNPTEAIEAWINFNKEEREAFAESLRTSLKEIGENVH”, the protein production result is “not failed”.
The value for “VRQVEEYIEANWMRPITIEKLTALTGISSRGIFKAFQRSRGYSPMAFAKRVRLQHAHNLLSDGATPTTVTAAALSCGFSNLGHFARDYRDMFGEKPSETLQRARP” was “not failed”; that for “VTATETVRVRFCPSPTGTPHVGLVRTALFNWAYARHTGGTFVFRIEDTDAQRDSEESYLALLDALRWLGLDWDEGPEVGGPYGPYRQSQRAEIYRDVLARLLAAGEAYHAFSTPEEVEARHVAAGRNPKLGYDNFDRHLTDAQRAAYLAEGRQPVVRLRMPDDDLAWNDLVRGPVTFAAGSVPDFALTRASGDPLYTLVNPCDDALMKITHVLRGEDLLPSTPRQLALHQALIRIGVAERIPKFAHLPTVLGEGTKKLSKRDPQSNLFAHRDRGFIPEGLLNYLALLGWSIADDHDLFGLDEMVAAFDVADVNSSPARFDQKKADALNAEHIRMLDVGDFTVRLRDHLDTHGHHIALDEAAFAAAAELVQTRIVVLGDAWELLKFFNDDQYVIDPKAAAKELGPDGAAVLDAALAALTSVTDWTAPLIEAALKDALIEGLALKPRKAFSPIRVAATGTTVSPPLFESLELLGRDRSMQRLRAARQLVGHA” was “not failed”.
On to “VTDVLLCVGNSMMGDDGAGPLLAEKCAAAPKGNWVVIDGGSAPENDIVAIRELRPTRLLIVDATDMGLNPGEIRIIDPDDIAEMFMMTTHNMPLNYLIDQLKEDIGEVIFLGIQPDIVGFYYPMTQPIKDAVETVYQRLEGWEGNGGFAQLAVEEE”, for which the protein production result is listed as “not failed”.
The value for “VTEEEIHAMLEEGSVAGIIEQQEHEMVRNVFRLDDRQLGSLMVPRADIIYLDTALPLEENMKRVVESEHSRFPVCHNGLQSLLGVVNAKQLLAQTIKGGVTNLAEHLQPCVYVPETLTGMELLDHFRTSGTQMVFVVDEYGEIQGLVTLQDMLEAVTGEFA” was “not failed”; that for “VTLSSGMQALLDDKFVYLAVNQAYAEKLNLTIDQVIGKHPRDIYSKGYFESELKIYSERCLAGEIIKLEKWMRSSSGQAWFIDIEMSPYYQNDGNIYGVMVNARDIT” was “failed”; that for “VYGSEVESKIIEFTIVGADEIIAEKLGISVGDFVYKIIRLRIIHSIPTIMEHTWMPISVIPGVEVSVLEESIYSHIQNKLGLQVGTSVVRVKGIRPDDKEKQFMNLTNQDFLMRVEQVAYLTDGRTFEYSYADHLPETFEFETVITAKSYKEA” was “not failed”.
